Data as given in the supplement of paper PMC10065799, “High-throughput profiling of sequence recognition by tyrosine kinases and SH2 domains using bacterial peptide display” (eLife, 2023).

Assays:
[1] = test system: AncSZ; assay: phosphorylation enrichment, bacterial display (enrichment ratio); higher = better substrate or ligand; peptides without Tyr show the background
[2] = target: EPHB1 (UniProt P54762); assay: as above
[3] = target: EPHB2 (UniProt P29323); assay: as above
[4] = target: FGFR1 (UniProt P11362); assay: as above
[5] = target: FGFR3 (UniProt P22607); assay: as above
[6] = test system: Fer (mouse); assay: as above
[7] = target: Fes (UniProt P07332); assay: as above
[8] = target: Fyn (UniProt P06241); assay: as above
[9] = target: Hck (UniProt P08631); assay: as above
[10] = target: Jak2 (UniProt O60674); assay: as above
[11] = target: MERTK (UniProt Q12866); assay: as above
[12] = test system: c-Abl (mouse); assay: as above
[13] = test system: c-Src; assay: as above
[14] = target: Grb2 SH2 (UniProt P62993); assay: SH2 binding enrichment of the phosphorylated peptide, bacterial display (enrichment ratio); higher = better substrate or ligand; peptides without Tyr show the background
[15] = target: SHP2-C SH2; assay: as above
[16] = target: c-Src SH2; assay: as above
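Throughout, for SH2 binding enrichment of the phosphorylated peptide, bacterial display: peptide library displayed on the E. coli surface as eCPX fusions, selected cells deep-sequenced, score is each peptide's frequency after selection divided by its frequency in the input.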
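Throughout, for phosphorylation enrichment, bacterial display: 11-residue human phosphosite peptides and single-mutation variants displayed on the E. coli surface, counted by deep sequencing, each peptide's frequency after selection divided by its frequency in the unselected input library; frequency after pTyr selection over input frequency; kinase dosed for 20-30% of maximal phosphorylation in three min.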

Sequence of EPHB1 (P54762 whole entry, looked up): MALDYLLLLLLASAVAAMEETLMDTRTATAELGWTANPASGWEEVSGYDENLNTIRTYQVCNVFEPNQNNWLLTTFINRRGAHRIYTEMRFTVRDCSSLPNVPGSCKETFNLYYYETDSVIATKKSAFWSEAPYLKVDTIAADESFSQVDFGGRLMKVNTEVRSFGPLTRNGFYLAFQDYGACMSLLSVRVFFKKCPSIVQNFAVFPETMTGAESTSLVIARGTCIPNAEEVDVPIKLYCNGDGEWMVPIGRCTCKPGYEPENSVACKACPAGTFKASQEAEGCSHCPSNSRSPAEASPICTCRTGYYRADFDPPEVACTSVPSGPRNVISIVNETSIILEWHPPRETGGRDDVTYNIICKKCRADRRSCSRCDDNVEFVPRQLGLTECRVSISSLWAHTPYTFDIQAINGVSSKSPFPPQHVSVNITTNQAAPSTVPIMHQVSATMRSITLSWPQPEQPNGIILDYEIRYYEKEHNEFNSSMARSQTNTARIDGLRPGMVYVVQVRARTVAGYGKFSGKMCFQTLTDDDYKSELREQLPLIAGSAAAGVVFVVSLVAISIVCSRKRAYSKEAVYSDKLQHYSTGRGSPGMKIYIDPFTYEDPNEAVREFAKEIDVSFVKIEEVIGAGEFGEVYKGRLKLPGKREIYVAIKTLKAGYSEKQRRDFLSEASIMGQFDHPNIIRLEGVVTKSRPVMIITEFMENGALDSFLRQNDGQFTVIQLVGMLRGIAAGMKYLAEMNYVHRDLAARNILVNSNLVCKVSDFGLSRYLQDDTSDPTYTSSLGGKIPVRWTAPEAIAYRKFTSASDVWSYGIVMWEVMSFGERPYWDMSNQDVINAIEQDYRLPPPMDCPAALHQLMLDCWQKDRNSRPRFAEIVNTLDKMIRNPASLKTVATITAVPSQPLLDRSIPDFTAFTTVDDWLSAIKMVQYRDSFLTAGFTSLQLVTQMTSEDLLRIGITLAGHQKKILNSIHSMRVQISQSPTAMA
Sequence of FGFR1 (P11362 whole entry, looked up): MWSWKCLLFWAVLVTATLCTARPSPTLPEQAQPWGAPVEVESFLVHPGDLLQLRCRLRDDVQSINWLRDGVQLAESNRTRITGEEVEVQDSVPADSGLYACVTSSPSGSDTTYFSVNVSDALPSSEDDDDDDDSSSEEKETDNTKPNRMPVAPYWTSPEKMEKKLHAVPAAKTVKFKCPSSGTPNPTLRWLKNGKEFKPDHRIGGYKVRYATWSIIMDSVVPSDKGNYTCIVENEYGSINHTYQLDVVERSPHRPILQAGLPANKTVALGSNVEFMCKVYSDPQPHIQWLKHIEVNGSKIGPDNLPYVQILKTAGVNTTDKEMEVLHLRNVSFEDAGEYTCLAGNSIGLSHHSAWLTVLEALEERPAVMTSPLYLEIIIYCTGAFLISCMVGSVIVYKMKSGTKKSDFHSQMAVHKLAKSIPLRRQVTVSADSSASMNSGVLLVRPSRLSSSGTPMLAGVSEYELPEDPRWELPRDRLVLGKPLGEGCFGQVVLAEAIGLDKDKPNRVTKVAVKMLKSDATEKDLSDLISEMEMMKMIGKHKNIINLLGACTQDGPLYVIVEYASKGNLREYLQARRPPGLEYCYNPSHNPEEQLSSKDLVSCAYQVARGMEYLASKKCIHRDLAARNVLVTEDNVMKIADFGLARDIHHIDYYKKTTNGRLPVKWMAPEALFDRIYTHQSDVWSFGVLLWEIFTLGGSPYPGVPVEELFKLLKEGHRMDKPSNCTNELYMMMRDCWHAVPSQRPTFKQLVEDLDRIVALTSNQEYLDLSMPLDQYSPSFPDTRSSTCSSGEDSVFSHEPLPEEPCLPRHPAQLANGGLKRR
Sequence of FGFR3 (P22607 whole entry, looked up): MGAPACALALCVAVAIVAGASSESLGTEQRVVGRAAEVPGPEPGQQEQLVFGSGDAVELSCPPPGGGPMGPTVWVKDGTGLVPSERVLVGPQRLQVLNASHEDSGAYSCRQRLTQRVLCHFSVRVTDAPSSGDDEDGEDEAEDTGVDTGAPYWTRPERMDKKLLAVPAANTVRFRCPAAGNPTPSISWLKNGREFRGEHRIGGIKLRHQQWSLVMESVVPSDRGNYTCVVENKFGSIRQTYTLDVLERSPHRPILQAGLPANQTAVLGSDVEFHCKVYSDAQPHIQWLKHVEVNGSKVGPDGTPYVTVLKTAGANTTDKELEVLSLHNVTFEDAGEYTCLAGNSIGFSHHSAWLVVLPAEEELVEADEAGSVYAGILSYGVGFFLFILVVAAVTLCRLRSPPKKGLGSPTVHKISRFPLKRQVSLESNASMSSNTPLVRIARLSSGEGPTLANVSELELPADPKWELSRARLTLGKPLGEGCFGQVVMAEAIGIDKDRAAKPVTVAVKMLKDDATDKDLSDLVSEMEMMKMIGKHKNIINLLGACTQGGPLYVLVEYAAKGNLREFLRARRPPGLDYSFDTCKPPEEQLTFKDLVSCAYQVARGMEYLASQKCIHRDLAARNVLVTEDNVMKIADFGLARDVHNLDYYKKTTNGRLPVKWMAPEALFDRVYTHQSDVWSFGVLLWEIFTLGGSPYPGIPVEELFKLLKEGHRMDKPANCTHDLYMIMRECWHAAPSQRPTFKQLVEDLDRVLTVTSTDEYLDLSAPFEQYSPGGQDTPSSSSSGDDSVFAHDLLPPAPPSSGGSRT
Sequence of Fes (P07332 whole entry, looked up): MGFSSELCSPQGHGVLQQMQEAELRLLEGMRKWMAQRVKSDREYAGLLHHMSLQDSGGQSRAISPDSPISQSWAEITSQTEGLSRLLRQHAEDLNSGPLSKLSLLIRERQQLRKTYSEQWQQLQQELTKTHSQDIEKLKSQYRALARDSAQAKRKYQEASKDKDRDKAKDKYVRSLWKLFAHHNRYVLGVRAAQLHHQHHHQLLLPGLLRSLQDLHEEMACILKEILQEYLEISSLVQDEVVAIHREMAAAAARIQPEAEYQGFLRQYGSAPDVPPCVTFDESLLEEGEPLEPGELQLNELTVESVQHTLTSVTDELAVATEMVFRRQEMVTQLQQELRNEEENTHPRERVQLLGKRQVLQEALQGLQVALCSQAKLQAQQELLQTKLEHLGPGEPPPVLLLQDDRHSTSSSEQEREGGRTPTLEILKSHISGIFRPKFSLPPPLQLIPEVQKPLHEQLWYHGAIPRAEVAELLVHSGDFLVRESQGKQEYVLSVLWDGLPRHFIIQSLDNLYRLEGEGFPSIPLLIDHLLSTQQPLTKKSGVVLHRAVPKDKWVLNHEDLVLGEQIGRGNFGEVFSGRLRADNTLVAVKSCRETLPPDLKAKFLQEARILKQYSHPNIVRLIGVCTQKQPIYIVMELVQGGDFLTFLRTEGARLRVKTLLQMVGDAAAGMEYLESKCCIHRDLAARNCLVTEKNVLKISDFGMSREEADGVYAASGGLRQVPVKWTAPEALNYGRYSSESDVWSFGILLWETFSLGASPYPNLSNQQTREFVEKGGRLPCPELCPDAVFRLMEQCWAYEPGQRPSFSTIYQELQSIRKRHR
Sequence of Fyn (P06241 whole entry, looked up): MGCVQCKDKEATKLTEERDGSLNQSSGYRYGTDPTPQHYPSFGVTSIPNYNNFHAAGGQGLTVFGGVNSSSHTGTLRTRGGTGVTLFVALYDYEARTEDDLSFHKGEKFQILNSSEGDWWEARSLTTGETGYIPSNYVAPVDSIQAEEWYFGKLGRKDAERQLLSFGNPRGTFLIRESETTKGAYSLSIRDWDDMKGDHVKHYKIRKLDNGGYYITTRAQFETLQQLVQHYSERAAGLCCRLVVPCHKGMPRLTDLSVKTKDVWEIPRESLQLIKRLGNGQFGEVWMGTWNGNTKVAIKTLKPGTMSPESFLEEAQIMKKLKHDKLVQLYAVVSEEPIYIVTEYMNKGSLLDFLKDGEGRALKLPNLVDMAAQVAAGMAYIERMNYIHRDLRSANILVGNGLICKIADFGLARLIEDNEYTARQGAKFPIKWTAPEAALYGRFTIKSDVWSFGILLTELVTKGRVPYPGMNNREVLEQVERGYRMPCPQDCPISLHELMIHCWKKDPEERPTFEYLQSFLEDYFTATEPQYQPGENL
Sequence of MERTK (Q12866 whole entry, looked up): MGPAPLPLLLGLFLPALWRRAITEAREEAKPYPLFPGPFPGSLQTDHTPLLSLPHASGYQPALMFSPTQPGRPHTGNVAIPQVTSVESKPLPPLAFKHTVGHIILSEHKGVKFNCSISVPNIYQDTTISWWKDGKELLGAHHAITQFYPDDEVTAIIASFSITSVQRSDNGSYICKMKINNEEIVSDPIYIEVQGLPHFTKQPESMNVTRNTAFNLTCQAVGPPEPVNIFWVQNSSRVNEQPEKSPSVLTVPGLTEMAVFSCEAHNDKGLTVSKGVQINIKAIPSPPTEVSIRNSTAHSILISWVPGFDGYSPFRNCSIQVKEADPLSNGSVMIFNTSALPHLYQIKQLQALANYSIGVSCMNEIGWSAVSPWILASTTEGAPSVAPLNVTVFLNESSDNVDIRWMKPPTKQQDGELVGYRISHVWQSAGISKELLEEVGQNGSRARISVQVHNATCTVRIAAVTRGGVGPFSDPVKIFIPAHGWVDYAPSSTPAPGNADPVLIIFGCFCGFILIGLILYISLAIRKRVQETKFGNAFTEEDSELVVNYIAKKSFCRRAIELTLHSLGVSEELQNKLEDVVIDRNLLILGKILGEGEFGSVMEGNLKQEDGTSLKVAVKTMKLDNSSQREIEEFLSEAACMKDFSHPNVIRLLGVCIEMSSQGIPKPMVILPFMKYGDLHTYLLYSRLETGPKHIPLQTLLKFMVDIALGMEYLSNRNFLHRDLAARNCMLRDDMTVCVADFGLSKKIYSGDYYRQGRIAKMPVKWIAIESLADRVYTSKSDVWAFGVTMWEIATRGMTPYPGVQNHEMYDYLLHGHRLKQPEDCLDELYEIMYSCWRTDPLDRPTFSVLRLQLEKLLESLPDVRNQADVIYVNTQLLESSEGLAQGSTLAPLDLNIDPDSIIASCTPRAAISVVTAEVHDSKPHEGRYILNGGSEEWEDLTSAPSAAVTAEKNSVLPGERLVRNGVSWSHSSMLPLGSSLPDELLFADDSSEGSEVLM

Sequence	phosphorylation enrichment [1]	phosphorylation enrichment [2]	phosphorylation enrichment [3]	phosphorylation enrichment [4]	phosphorylation enrichment [5]	phosphorylation enrichment [6]	phosphorylation enrichment [7]	phosphorylation enrichment [8]	phosphorylation enrichment [9]	phosphorylation enrichment [10]	phosphorylation enrichment [11]	phosphorylation enrichment [12]	phosphorylation enrichment [13]	SH2 binding enrichment [14]	SH2 binding enrichment [15]	SH2 binding enrichment [16]
FPPDGYSRHCE [CTNND1_Y213_Y217C_YF]	0.784	0.565	0.542	0.477	0.661	0.485	0.904	0.431	0.473	0.741	0.383	0.584	0.376	0.985	0.706	0.617
FPPDGYSRHFE [CTNND1_Y213_YF]	0.606	0.363	0.373	0.398	0.603	0.349	0.676	0.435	0.408	0.62	0.372	0.493	0.472	0.818	0.738	0.424
FPPISYLNAIS [MVD_Y276]	0.813	0.383	0.472	0.473	0.522	0.408	0.675	0.488	0.465	0.51	0.49	0.664	0.466	0.668	0.771	0.491
FQEKGYNKEPR [CHRND_Y38_L42P]	0.895	0.738	0.627	0.587	0.569	0.571	0.868	0.649	0.655	0.691	0.644	0.912	0.57	1	0.981	0.67
FQGRRYDCDCD [CRYGS_Y21]	0.875	0.373	0.383	0.478	0.497	0.368	0.936	0.428	0.5	0.751	0.529	0.647	0.471	0.926	0.687	0.571
FQNSLYAPDYS [FAM92A_Y226_R222Q]	1.1	2.48	2.45	0.781	0.926	1.6	1.07	1.07	1.46	0.945	5.57	0.618	1.42	1.2	1.17	0.628
FRDALYKFIVD [PHEX_Y250_M253I_YF]	1.02	0.644	0.489	0.44	0.748	0.479	1.32	0.508	0.56	0.919	0.902	0.809	0.546	1.02	1.02	1.04
FRDALYKFMVD [PHEX_Y250_YF]	1.15	0.768	0.602	0.626	0.962	0.676	1.37	0.525	0.559	1.23	0.763	0.834	0.582	0.897	0.956	0.77
FRNSLYAPDYS [FAM92A_Y226]	0.723	1.23	0.775	0.66	0.619	0.555	0.725	0.734	0.88	0.58	4.83	0.493	0.779	0.79	0.754	0.568
FRRITYFNWRH [PDE6B_Y556_H557Y_YF]	0.817	0.626	0.625	0.553	0.476	0.423	0.8	0.607	0.832	0.852	0.615	0.573	0.673	0.821	1.99	0.363
FRTPGYREVVI [TNS2_Y673_A670T_YF]	0.703	0.418	0.446	0.45	0.6	0.473	0.814	0.411	0.43	0.615	0.546	0.597	0.504	1.35	0.901	0.607
FSLIHYAGIVD [MYH7_Y582]	0.997	0.503	0.648	0.405	0.714	0.387	0.963	0.408	0.458	0.765	0.339	0.609	0.343	1.45	19	5.22
FSLIHYASIVD [MYH7_Y582_G584S]	1.07	0.83	0.692	0.479	1.01	0.714	1.29	0.488	0.575	1.13	0.475	0.847	0.442	1.08	37.2	7.83
FSPCDYQPCLA [TNS1_Y798_Y796C_YF]	1.84	11.6	6.05	2.38	1.58	0.539	1.11	0.581	0.659	1.05	0.49	0.996	1.42	0.883	0.843	0.837
FSPFDYQPCLA [TNS1_Y798_YF]	1.39	0.775	0.715	1.01	0.978	0.643	1.44	0.589	0.66	1.21	0.538	1.04	0.57	0.756	0.657	0.496
FSQETYYRVSN [ABCD1_Y180_Q178E]	1.26	4.43	2.73	4.96	3.85	0.492	0.812	1.77	4.2	6.03	3.78	1.03	4.41	0.841	0.628	0.654
FSQQTYYPVSN [ABCD1_Y180_R182P]	0.805	4.58	3.55	9.03	6.85	0.983	0.647	2.76	5.05	7.07	7.46	0.697	4.37	0.938	0.818	0.877

Sequence	phosphorylation enrichment [1]	phosphorylation enrichment [2]	phosphorylation enrichment [3]	phosphorylation enrichment [4]	phosphorylation enrichment [5]	phosphorylation enrichment [6]	phosphorylation enrichment [7]	phosphorylation enrichment [8]	phosphorylation enrichment [9]	phosphorylation enrichment [10]	phosphorylation enrichment [11]	phosphorylation enrichment [12]	phosphorylation enrichment [13]	SH2 binding enrichment [14]	SH2 binding enrichment [15]	SH2 binding enrichment [16]
FSVDGYDSSVR [KCNQ1_Y461]	0.693	0.519	0.513	0.427	0.53	0.36	0.773	0.461	0.393	0.672	0.311	0.648	0.37	0.948	0.727	0.688
FYDANCDGKEY [MAPRE2_Y162_Y162C]	1.21	0.651	0.682	0.497	0.922	0.527	1.4	0.612	0.563	1.13	0.539	0.81	0.642	1.03	0.641	0.617
GAAMLYFPSVS [GPR143_Y177_YF]	0.613	0.465	0.423	0.66	0.736	0.437	0.764	0.445	0.512	1.36	0.732	0.535	0.56	0.871	0.895	0.503
GDEVEYMSVSF [GCLC_Y53_L55S]	1.56	0.561	0.832	1.01	1.17	0.972	1.16	1.41	1.26	1.11	0.418	0.846	1.49	0.736	0.623	0.376
GDGRFYMKEAI [PGM1_Y66]	0.875	0.552	0.613	0.52	0.682	0.549	1.11	0.45	0.454	1.03	0.311	0.709	0.38	0.642	0.658	0.561
GEDDVYDSVPG [FGR_opt_2018]	1.39	0.683	0.762	0.676	0.783	0.861	1.2	1.59	1.37	0.946	0.544	0.617	0.933	0.85	0.623	0.587
GENTMYAQVFN [LY9_Y603]	0.912	1.47	0.787	0.56	0.561	5.6	0.968	2.5	3.32	0.803	2.18	0.958	2.38	0.751	10.1	1.84
GESQGYDIMEA [MSH2_Y863_P868A]	0.85	0.469	0.484	0.536	0.546	0.463	0.883	0.456	0.492	0.744	0.42	0.577	0.417	0.778	0.876	4.32
GFFDLYGGEKF [PTPN11_Y66_D61G_YF]	0.906	0.603	0.858	0.484	0.575	0.72	1.05	2.13	3.85	0.914	0.504	0.767	2.7	0.995	0.832	0.564
GFPVRYTDVSN [DNMT3B_Y815_H814R]	0.606	0.678	0.441	0.457	0.531	0.398	0.665	0.423	0.451	0.712	0.466	0.529	0.448	0.96	1.38	1.24
GFVEDYRPPFF [ACVRL1_Y421_I417F_YF]	0.944	0.504	0.444	0.537	0.6	0.411	0.987	0.442	0.525	0.879	0.428	0.868	0.501	0.784	0.675	0.398
GGDAVYTNGTI [RFX2_Y82_A86T]	0.778	1.39	0.488	0.392	0.613	0.464	0.836	1.17	1.19	0.667	0.391	0.74	1.32	0.91	0.597	0.434
GGQSVYHVHLH [HINT1_Y109]	0.619	0.476	0.487	0.495	0.532	0.455	0.77	0.865	0.686	0.629	0.434	0.581	1.01	1.19	0.904	0.897
GGQSVYHVNLH [HINT1_Y109_H112N]	0.583	0.495	0.364	0.429	0.376	0.337	0.617	1.01	0.583	0.491	0.387	0.491	1.03	0.698	0.663	0.491
GGSDRYGSLRP [MYLK_Y846]	0.494	0.385	0.418	0.425	0.407	0.332	0.61	0.385	0.339	0.716	0.37	0.495	0.452	0.997	0.562	0.428
GHLFAYDWISI [BEST1_Y227_YF]	1.25	0.938	0.823	2.76	1.74	15.1	1.48	0.894	1.4	0.707	6.92	0.526	0.915	1.36	1.16	1.09
